In the supplement of paper PMC12042874:
± gives the uncertainty stated by the source.

Assay: amyloid nucleation score (Sup35N fusion, yeast selection) (log enrichment); library NNK2; higher = more nucleation; inactive = no reads after selection
Procedure, shortened: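 Yeast lacking psi expressed peptides of 20 random codons fused to Sup35N, received 100 μM copper sulfate for 24 hours, and were then grown for 7 days at 30°C on medium lacking adenine and uracil. Illumina sequencing of input and output plasmid inserts provided the reads. Nucleation scores are DiMSum log enrichments of output over input, centred on the mode of non-aggregating sequences. Any sequence with under 100 input reads was excluded.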

| Substance | amyloid nucleation score |
| --- | --- |
| TSHSCGYLWCSLV | 0.211 ± 0.61 |
| TSNSTQLEDLV | 0.309 ± 0.45 |
| TSQTCLEVSRSCCVGMRKSK | 0.192 ± 1 |
| TSRLHNFATRIIVCYRLLMQ | -0.525 ± 1.1 |
| TSSFEARRRGWLTDEGVLFY | 0.784 ± 0.54 |
| TSSTLGLYSHDMPTATHLME | -0.176 ± 0.41 |
| TSSVPGLRSWVWVKQDSDRW | 1 ± 0.19 |
| TSTTYRLYKLGQFLARPANQ | -0.637 ± 1.1 |
| TTDLYEMLWTFWSINRNSKS | -0.071 ± 0.61 |
| TTGRTYIRLIYIMCVSMNVS | inactive |
| TTRSIMQCDLGTNPFDNTCS | 0.203 ± 0.41 |
| TTSQFGLGGICPDNSTGLLA | -1.31 ± 1 |
| TVAVGVIV | inactive |
| TVIAEPIRDEQCTIYHRCGV | 0.554 ± 0.38 |
| TVKCYNL | 0.268 ± 0.46 |
| TVLLSLSYADCSMLWLVRTL | -0.304 ± 1.1 |
| TVSPPLVVFAFRISLRSLRP | 1.12 ± 0.4 |
| TVTRLSYGMFHQRNRVC | -0.267 ± 0.45 |
| TVVVYIRYRTPMRMVTPPSQ | 0.986 ± 0.21 |
| TVYNDNFVCRILNLDITILF | 6.957 ± 0.053 |
| TWQIFFGIFGFSFY | 4.18 ± 0.062 |
| TWQVMRRYLENPDGSL | -1.03 ± 0.62 |
| TWRNYS | -0.279 ± 0.35 |
| TWRVP | 0.884 ± 0.55 |
| TWVLSWSIPNCARGFLSWWI | 0.672 ± 0.18 |

| Substance | amyloid nucleation score |
| --- | --- |
| TWVVRVGFMLAYLKQR | 2.63 ± 0.093 |
| TWYPIAFKTGCEMLTERSM | 6.435 ± 0.035 |
| TYEMTRMSGIKSSLLPREFW | 1.52 ± 0.17 |
| TYGVLVNIGGWIDTFGWKLK | 6.662 ± 0.049 |
| TYHCN | 0.765 ± 0.43 |
| TYTKFISILRSALSLMYLAS | 0.972 ± 0.67 |
| TYVCDNTESYTCLWLL | 7.791 ± 0.038 |
| TYVMPSVVIKNCH | -0.267 ± 0.79 |
| TYVYKYLFWSIPCMA | 0.715 ± 0.66 |
| VADHVCFVCRHTLDP | -0.317 ± 0.62 |
| VAHSVTGFQWHACSREMNFR | 4.57 ± 0.12 |
| VAKRISHGIQLSLSCKGTRP | 0.138 ± 0.76 |
| VAKYLHYMSWVWRFMAWSYV | -1.15 ± 1 |
| VALMYFRFQKFDSSSSMHRF | 2.5 ± 0.18 |
| VALQWMG | 2.2 ± 0.19 |
| VALSSVFKEESCRVIRIMES | -1.02 ± 0.32 |
| VAMVVRGTLYPALCPTYWVS | 2.25 ± 0.11 |
| VANNTGAKSYVFMARNAMCF | -0.602 ± 0.49 |
| VAQSRLT | 0.521 ± 0.8 |
| VAVVFTKYSSRTYLGVGSVG | 4.21 ± 0.07 |
| VAYVQCD | 0.035 ± 0.39 |
| VAYYLCAGTSGDTFGKANQS | 0.222 ± 0.8 |
| VCASYMQFIDHCSKKEVWLN | -1.1 ± 0.44 |
| VCFCQAFYGTRYHKCLVGLF | inactive |
| VCFGIKWSMLCWYFMDGGQQ | 2.05 ± 0.16 |

| Substance | amyloid nucleation score |
| --- | --- |
| VCGGVRYYLNTFYIKR | 7.566 ± 0.054 |
| VCNSLCDSYF | -1.28 ± 0.56 |
| VCQLQYILRNMLDKTRVSQD | 0.912 ± 0.26 |
| VCRVFIKLYI | 1.03 ± 0.21 |
| VCVIISLHRV | 4.99 ± 0.058 |
| VCVLGIGT | inactive |
| VCWGFSFATHGLWDMAF | -0.32 ± 0.26 |
| VCWTNSWVCNSGVLSGVGAA | 1.41 ± 0.18 |
| VCYAGLLAKRLRLVVVSGNV | 0.531 ± 0.26 |
| VCYIPYMLRSHLNALTFLSV | -0.492 ± 0.76 |
| VCYKYRTCYIYISFRSNFST | -1.04 ± 1.1 |
| VCYRSKASILLYGTPGGVRV | -0.184 ± 1.1 |
| VDANIHWTCNSG | 0.322 ± 0.38 |
| VDFLLYLVSSTFGRARKWVY | -0.425 ± 0.27 |
| VDGTFYLTYFTTCVQSIFFA | 0.558 ± 0.6 |
| VDGVKTSIKGRNFI | -0.259 ± 0.45 |
| VDLAR | inactive |
| VDLCDFCKLVASMVEDGSRE | inactive |
| VDLGNYSSYRDFRETRLRPM | 0.229 ± 0.39 |
| VDLTIVHRGGGAGMGSNRVK | 0.176 ± 0.24 |
| VDMPTSQFVTSTTLGTLVTM | 2.32 ± 0.12 |
| VDPPLGKWGAEGCI | 0.484 ± 0.51 |
| VDRMVDIMCTTKKMIHAF | 1.45 ± 0.4 |
| VDVNVHIAGIWLWFYLWRYV | -0.768 ± 1.1 |
| VDWRNFIGLLNLTDCSDRYH | -0.744 ± 0.34 |

| Substance | amyloid nucleation score |
| --- | --- |
| VDYVGSYTVSEDREENLAKP | 3.75 ± 0.096 |
| VDYYDIQCL | 0.649 ± 0.36 |
| VEAWGP | -0.948 ± 0.45 |
| VEFNNAFNNCSLLFSDPRSS | 3.34 ± 0.12 |
| VEMSEDEPCLWYGSLIPGTR | 2.83 ± 0.18 |
| VERRVGEVRFIDAGVFGLGY | inactive |
| VERVPGCTRTRTFWLNSSDW | 0.591 ± 0.25 |
| VETMY | 1.24 ± 0.43 |
| VEVYTVSSYVDYVYPDCRGV | 0.418 ± 0.62 |
| VFEVDLFWRSKFNSCLLPFR | -0.95 ± 0.36 |
| VFGYTSRR | 3.49 ± 0.057 |
| VFIMRISCY | -0.424 ± 1.1 |
| VFLAPRMF | -0.864 ± 0.45 |
| VFLVCYTYLWTFKSCTYFMN | -1.88 ± 0.78 |
| VFLYAYYLNI | 0.039 ± 0.77 |
| VFTYLSSDFYTGWTMVNHIM | -0.357 ± 0.21 |
| VFYNAASDFLAILQEFTSSH | inactive |
| VGAMLKWLT | 0.378 ± 0.23 |
| VGDCITAWRSWNNCFVGYGP | 3.2 ± 0.053 |
| VGFRSSCMVTSLIY | -1.64 ± 0.44 |
| VGFSNGLDFDAVFNMKCQQW | -0.965 ± 0.41 |
| VGGFRGRVTSHSPMRMCIQR | -0.114 ± 1 |
| VGGGVHGEFGHHYCPSVLGL | 1.81 ± 0.2 |
| VGGLFYLLLMG | -0.865 ± 0.53 |
| VGGYLAICNGLSSLCLDPG | -0.59 ± 1.1 |

| Substance | amyloid nucleation score |
| --- | --- |
| VGIFLKSYV | -1.32 ± 1 |
| VGKMVNVDGRSPSCWSVWH | 0.47 ± 0.13 |
| VGNIGPT | 0.338 ± 0.46 |
| VGRVHSLSDYCDFGKSWFKY | -0.864 ± 0.74 |
| VGSSHQSLEATKWGVVVLCR | 6.569 ± 0.049 |
| VGVVVNFRASGPGFE | 8.288 ± 0.061 |
| VGVWTALTPCKVVFTSDRLS | 1.23 ± 0.4 |
| VGYSEMGVADLGHGGW | 1.15 ± 0.31 |
| VHDFTRNRKWWDNLWSDRSM | 0.399 ± 0.47 |
| VHDQIPE | 0.071 ± 0.79 |
| VHELCTYNLFEPVCSLVWYR | 9.545 ± 0.05 |
| VHGRGNLKA | 0.032 ± 0.33 |
| VHPSDGAGLYS | -1.34 ± 0.78 |
| VHRSLSLFSFKSSECRPS | 6.456 ± 0.064 |
| VHRTEVRLLSQGTRYVSCNS | 2.06 ± 0.3 |
| VHVRGACCHGCRARNVSGHP | 1.05 ± 0.19 |
| VICFAMSMILR | 3.38 ± 0.13 |
| VIGRYIDYC | -0.13 ± 0.27 |
| VIKTFVILDVYAGLSCQC | 1.25 ± 0.34 |
| VILNYSRY | 4.5 ± 0.078 |
| VIMMSNNSERYYVEQIFVSG | 0.09 ± 0.41 |
| VINLGGSE | 0.406 ± 0.38 |
| VIPFISIRLCAAVRVFVPQS | 5.04 ± 0.075 |
| VISNHPETTDTNRVLLYVLG | 0.411 ± 0.53 |
| VISYMFRSTGVFNT | 2.73 ± 0.19 |

| Substance | amyloid nucleation score |
| --- | --- |
| VIVGSLRCHFSLVAWVKC | 0.651 ± 0.51 |
| VKALNKLGAKINLMIRFVRS | -0.306 ± 0.39 |
| VKCKRCSASSFAIYVEYCCT | 0.138 ± 0.17 |
| VKEYYSTGSTWRLYWMWSDW | 0.282 ± 0.36 |
| VKLMY | -1.12 ± 0.62 |
| VKNFYVNIFQCGIPPPFKEM | 7.668 ± 0.026 |
| VKSTSFPTWMISMIGQRTAH | -0.711 ± 1.1 |
| VKVGSSTRRGSGVPSGPKLG | 1.04 ± 0.52 |
| VKVPYMLARGLDQKGTRRWQ | 8.102 ± 0.064 |
| VLAARVTTYHLCVSEDVVTL | 2.9 ± 0.15 |
| VLCRRHSN | 1.41 ± 0.38 |
| VLCTYRGLDITL | 0.166 ± 0.21 |
| VLDSAYCAFVYFFIVVIWWF | -0.595 ± 0.61 |
| VLDYSTHIEFGQRRVVGFAR | -0.321 ± 1 |
| VLFDGKPMEVFFWCLPEWVF | inactive |
| VLFSHQDEGLWHIHVHF | 3.28 ± 0.052 |
| VLGGPTVRLSWFPSSGLACY | 0.23 ± 0.65 |
| VLGWCCLVLSILLKCEKVGL | -0.095 ± 1.1 |
| VLILDVVYSLDESEVSVVWY | -0.429 ± 0.42 |
| VLIVFNNPCFMGWALVDVVL | 8.194 ± 0.053 |
| VLLFLSMEVLNRNGMKVPVM | 2.17 ± 0.16 |
| VLNGRTEWTKQVDFIYFITD | -0.464 ± 1.1 |
| VLPGVSFFTYRFKKF | inactive |
| VLRRIVMMLSIS | -0.069 ± 0.32 |
| VLSCCIPKKNSYWTVTDQPC | 8.266 ± 0.033 |

| Substance | amyloid nucleation score |
| --- | --- |
| VLSSRSEDTGQACEVIICVV | 0.693 ± 0.34 |
| VLVDTSDRWLMARWLGVPKP | 4.79 ± 0.084 |
| VLVEGVQCYSENRTNT | 1.49 ± 0.41 |
| VLVRS | 0.157 ± 1 |
| VLVSVVRCDVVAAVRCVQM | 3.56 ± 0.11 |
| VLVTRIEWMGESTCMSLVNY | 2.69 ± 0.12 |
| VLVVSRA | -0.514 ± 0.45 |
| VLYFLYGKWQKTQRSNRYLQ | -0.674 ± 0.76 |
| VLYHFEISA | -0.011 ± 0.54 |
| VLYLLKSSSFSTGVNSRCMR | -0.256 ± 1.1 |
| VLYSRVLDGRESTNLGRL | inactive |
| VLYYTPRLSVERMGFHNMIY | -0.46 ± 1 |
| VMGEKIWSAWYTRDDQLCGS | 0.547 ± 0.36 |
| VMNDLILSKAVLGFELRLWG | 4.23 ± 0.066 |
| VMNSVHVFQYTSCCLILVGL | 6.945 ± 0.062 |
| VMTSIVFNRVSWYFLIMFVW | -0.987 ± 0.55 |
| VMVAYSLLGSRSSILLW | 0.021 ± 0.32 |
| VMYRRSACIEQDSYSNINCR | 0.025 ± 0.29 |
| VNAHLWYIFRVWDVKDRVVD | -0.315 ± 0.74 |
| VNGSTMFQVMFWLRPVHVIE | -0.119 ± 0.53 |
| VNIRGTHVLVRVYSQGRNRA | 8.528 ± 0.062 |
